Source: the supplement of paper PMC9170038

Test system: MS2 coat protein
Assay: apparent KD of MS2 coat protein; higher = weaker reporter binding
Conditions: Eterna round: R107
How it was run: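 Designed RNA switches were made by on-chip transcription from Illumina sequencing clusters and then titrated with SNAP-549-labelled MS2 coat protein. Twofold steps ran from 0.7 or 1.5 nM to 3 µM, each lasting 0.8–1.5 h early and 10–20 min late, in 100 mM Tris-HCl pH 7.5, 80 mM KCl, 4 mM MgCl2, without or with constant ligand. Apparent KD is the per-design median of normalised cluster binding-curve fits.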

[1] = input ligand: theophylline 20 uM
[2] = input ligand: theophylline 2 mM
[3] = input ligand: tryptophan 2.4 mM

| Sequence | apparent KD of MS2 coat protein (input ligand: arginine 13.2 mM) [nM] | apparent KD of MS2 coat protein (input ligand: none) [nM] | apparent KD of MS2 coat protein [1] [nM] | apparent KD of MS2 coat protein [2] [nM] | apparent KD of MS2 coat protein [3] [nM] |
| --- | --- | --- | --- | --- | --- |
| AUAUAUGACAGAAGGAGCGCCAUGAACACACAUGAGGAUCACCCAUGUUUUUUUUGUGUUUGGCAGGUAGGUCGCUGACAUGAAA [Same State Arginine B 3] | 9.45 | 8.71 | 17.7 | 11.6 | 9.98 |
| AUAUGAUCAUAGGAUACCAGAAAUGGUAUUCCUUUAUUUCUUACAUGAGGAUCACCCAUGUUCCCUUGGCAGCUUAUGAUCAUAU [ETHB #4] | 79.3 | – | 169 | – | 107 |
| AUCAGUAGAACUGAUACCAGUCAAAGGCUUUGACCUCAUAACAUGAGGAUCACCCAUGUUGACCCUUGGCAGCAGUAGGCAAGGG [Theo B Ex t4] | 22.5 | – | 28.9 | – | 25.4 |
| AUCAUGGCCAUCGAUACCAGCUACAUGAGGAUCACCCAUGUAAACGGCGCGGUGAGAUGUAGCCCUUGGCAGCGAAGGGUCAAGG [Beonrexe] | 16.4 | 16.8 | 49.2 | 64 | 19.6 |
| AUCUACGUGGGUGAUACCAGCUGGUUAGUACACAUGAGGAUCACCCAUGUGCAGGCAGGCAGCCCUUGGCAGCACCGCAGUGGCU [theeternabot_sameState_MS2_Theo_B_36] | 42.8 | – | 221 | – | 60.9 |
| AUCUAUAGAGCGGCCGCCACUGAAUACAUGAGGAUCACCCAUGUAAUGUUAAGGUGGUCCUAGCUCAGGACCGGGCUCUAUAGAU [Tryp B Ex t4] | 30 | – | 60.6 | 53.3 | – |
| AUCUGUAUGUUUUCGUGUUUUAUUACAGAUACCAGACUAUACGUUGUCCCUUGGCAGCUGGAUGACAUGAGGAUCACCCAUGUUG [#27 Exclusion-TheophyllineA] | 24 | – | 41.2 | – | 31.8 |
| AUGCAGAACACGGCCGCCACUCAUUGUAGACAUGAGGAUCACCCAUGUAAUAGGGAUAUUUUAUUGAGGACCGGGUGUAAUGCAA [JR_SSTryptoB_Sub013] | 34.5 | – | 77.6 | 59.5 | – |
| AUGCAUAGCGGAAGGAGCGCAAUAGAAUGACAUGAGGAUCACCCAUGUGUGUGAUGUGGAUUGCAGGUAGGUCGCCGAGUGGUAU [Exclusion - Arginine B (Freestyle 3)] | 35.9 | 45.1 | 57.5 | 42.7 | 42.8 |
| AUGGAGACCUCGGCCGCCACUCUCCAUGAGGAUCUCCCAUGUAACAUGAGGAUCACCCAUGUACUGAGGACCGGGAGGUCCUUGA [Same State Tryptophan B GF 17] | 7.9 | – | 10.8 | 10.1 | – |
| AUUAAAGUUUAUAAGGAAAUUGAAACAGAAGGAGCGUGAGUAAUCACAGGUAGGUCGCUGGUAGUACAUGAGGAUCACCCAUGUU [JR_Nu_SSArginiA_Sub020] | 22.2 | 20.1 | 30.6 | 24.2 | 21.3 |
| AUUCAUAAUUGGGUAAAUGGAUAGAGUGAUACCAGUCAUAUACAUGACCCUUGGCAGCACAAGGACAUGAGGAUCACCCAUGUCA [Same State Theophylline A GF22] | 21.1 | – | 26.7 | – | 28.9 |
| AUUCAUGGAAACAUGACAUAGGGAUCUAGCCGAGGACCGGUACGGCCGCCACUCGCUUGGAGGCACAUGAGGAUCACCCAUGUUA [SS Tryp A #6] | 42.3 | – | 140 | 140 | – |
| CAAUAAGUAACUGAUACCAGUGUACUGACAUGAGGAUCACCCAUGUUGGGUUUUGUUGUACACCCUUGGCAGCAGAAUCUUAUUG [AstrosExyTheB#12] | 44.2 | – | 67.2 | – | 55.4 |
| CAAUAUAUAUGAAGGAGCGUCGAAAAUGGGUAAACAUGAGGAUCACCCAUGUAAAGGGAACGACAGGUAGGUCGCAUAUAUAUUG [AstromonsSSArgB#8] | 117 | 168 | 305 | 218 | 192 |
| CACAGUGCGAAUUUGAAAUCGCACGAUCCUCGAGGACCGGUACGGCCGCCACUCGCGCGGGUCGUACAUGAGGAUCACCCAUGUC [Beertele] | 44 | – | 600 | 907 | – |
| CACGCGGUGUCGGCCGCCACUGACGCCCGUGGGUCUCCUGACAUGAGGAUCACCCAUGUACAGCGCAGGACCGGGACACCAACAA [Are] | 22 | 49.4 | 59 | 64.2 | 29.3 |
| CAGAGCUACCGGGAUACCAGAAUUGGUAUUCCUAUAUUUCUUACAUGAGGAUCACCCAUGUUCCCUUGGCAGCUUGGUAGCUCUG [ETHB #9] | 45.1 | – | 87.6 | – | 68.8 |
| CAUAAUUUAUCCUAUAAAACUAUUAGUGAUACCAGCACCUCAUGAUGCCCUUGGCAGCACUUACAUGAGGAUCACCCAUGUUUUA [JR_NU_SSTheophyA_Sub029] | 99.6 | – | 223 | – | 158 |
| CAUAUAUAUUGAAGGAGCGACAUGAGGAUCACCCAUGUCUACCACGUCGAAAGACGCUCAUGUCAGGUAGGUCGCAAUAUAUAUG [Astros-Eli-mod5] | 41.5 | 124 | 86.2 | 144 | 106 |
| CCAUGCAGGUCGGCCGCCACUACACACAUGAGGAUCACCCAUGUAGUUACUGGGUGAAGUGGCAGUAGGACCGGGACCUGCAUAC [Brourdmod12] | 78.2 | 341 | 459 | 540 | 395 |
| CCGACAUGAGGAUCACCCAUGUGAACAGAUACCAGUCUGGUAAUAGACCCUUGGCAGCUGAACCAGGAAACUAUGGUGAUCCUGG [Theo A SS t3] | 66 | 69.8 | 89.5 | 187 | 83.6 |
| CCGUCACAUGAGGAUCACCCAUGUGCGGAAGGAGCGGACGAAAGUCCAGGUAGGUCGCCGUAUAGCCAAUGACCAGCAGUGUCGG [XARG-A 21] | 12.1 | 12.6 | 15.4 | 14.8 | 14.4 |
| CCUAUGCAGUCGGCCGCCACUGAACAUGAGGAUCACCCAUGUAACGGAAACGAAGAUCCUGAAAUCAGGACCGGGACUGUAUAGG [Ex Tryptophan B 3] | 92.6 | 154 | 221 | 185 | 382 |
| CCUAUGCAGUCGGCCGCCACUGAACAUGAGGAUCACCCAUGUAAUUAUAAAUAUGGUCCUAAAAUCAGGACCGGGACUGUAUAGG [Ex Tryptophan B 7] | 122 | 64.2 | 144 | 296 | 237 |
| CCUAUGCAGUCGGCCGCCACUGAGUCCUCAAUAAUAAAUUAAUAAACAUGAGGAUCACCCAUGUACAGGACCGGGACUGUAUAGG [Ex Tryptophan B 12] | 165 | – | 324 | 441 | – |
| CCUAUGCAGUCGGCCGCCACUGAUAACGUUAUCGUUACCUCAGAAACAUGAGGAUCACCCAUGUACAGGACCGGGACUGUAUAGG [Ex Tryptophan B 19] | 14.4 | – | 14.6 | 13.2 | – |
| CCUCACAUGAGGAUCACCCAUGUCUUUACACGAGGACCGGUACGGCCGCCACUCGUUCACAAAACAACCAGAAGUGAUGCCUACA [theeternabot_sameState_MS2_Trp_A_14] | 80.2 | – | 183 | 214 | – |
| CCUCAUGUGUAUCACCACAUGAGUGGUGAUACCAGCAUCGAAAGAUGCCCUUGGCAGCACCAACAUGAGGAUCACCCAUGUAAUA [(M)'-(T)'-(M)''-(T1)-(T2)-(M1)-(M2)_Design2] | 60.3 | – | 284 | – | 287 |
